Experimental data taken from PMC5999318 (Molecular cell, 2018).

What was measured:
[1] = biological target: T1, His-tagged CodA, purified recombinant (E. coli, UniProt P25524 1-427); experiment: co-IP
T1 sequence (looked up): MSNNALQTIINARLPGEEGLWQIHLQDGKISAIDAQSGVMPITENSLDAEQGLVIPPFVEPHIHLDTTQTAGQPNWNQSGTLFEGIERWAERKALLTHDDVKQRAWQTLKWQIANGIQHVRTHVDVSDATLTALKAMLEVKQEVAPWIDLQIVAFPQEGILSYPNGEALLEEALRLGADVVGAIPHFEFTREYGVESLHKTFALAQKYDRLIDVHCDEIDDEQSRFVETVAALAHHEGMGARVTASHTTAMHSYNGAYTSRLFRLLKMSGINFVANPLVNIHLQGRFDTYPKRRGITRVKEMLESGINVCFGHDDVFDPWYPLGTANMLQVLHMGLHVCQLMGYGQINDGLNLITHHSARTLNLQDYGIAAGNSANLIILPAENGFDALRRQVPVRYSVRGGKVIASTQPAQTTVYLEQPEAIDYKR

[2] = biological target: the molecule itself; experiment: non-reducing SDS-PAGE and anti-FLAG western blot of lysates

B1: His-tagged GAPDH, purified recombinant (enzyme, E. coli, UniProt P0A9B2 1-331, looked up)
chain: MTIKVGINGFGRIGRIVFRAAQKRSDIEIVAINDLLDADYMAYMLKYDSTHGRFDGTVEVKDGHLIVNGKKIRVTAERDPANLKWDEVGVDVVAEATGLFLTDETARKHITAGAKKVVMTGPSKDNTPMFVKGANFDKYAGQDIVSNASCTTNCLAPLAKVINDNFGIIEGLMTTVHATTATQKTVDGPSHKDWRGGRGASQNIIPSSTGAAKAVGKVLPELNGKLTGMAFRVPTPNVSVVDLTVRLEKAATYEQIKAAVKAAAEGEMKGVLGYTEDDVVSTDFNGEVCTSVFDAKAGIALNDNFVKLVSWYDNETGYSNKVLDLIAHISK
B1: binds [1].

B2: FLAG-tagged Hcp (hybrid-cluster protein), overexpressed in WT E. coli (enzyme, UniProt P75825 1-550, looked up)
chain: MFCVQCEQTIRTPAGNGCSYAQGMCGKTAETSDLQDLLIAALQGLSAWAVKAREYGIINHDVDSFAPRAFFSTLTNVNFDSPRIVGYAREAIALREALKAQCLAVDANARVDNPMADLQLVSDDLGELQRQAAEFTPNKDKAAIGENILGLRLLCLYGLKGAAAYMEHAHVLGQYDNDIYAQYHKIMAWLGTWPADMNALLECSMEIGQMNFKVMSILDAGETGKYGHPTPTQVNVKATAGKCILISGHDLKDLYNLLEQTEGTGVNVYTHGEMLPAHGYPELRKFKHLVGNYGSGWQNQQVEFARFPGPIVMTSNCIIDPTVGAYDDRIWTRSIVGWPGVRHLDGDDFSAVITQAQQMAGFPYSEIPHLITVGFGRQTLLGAADTLIDLVSREKLRHIFLLGGCDGARGERHYFTDFATSVPDDCLILTLACGKYRFNKLEFGDIEGLPRLVDAGQCNDAYSAIILAVTLAEKLGCGVNDLPLSLVLSWFEQKAIVILLTLLSLGVKNIVTGPTAPGFLTPDLLAVLNEKFGLRSITTVEEDMKQLLSA
In the case of B2, the “stoichiometry N” value [2] is reported as 2.
